According to a protein production outcome set (Wang et al. 2014):

Test: label from the status in PepcDB records
With “MTALRQDIDPNGLLEYSVVYTDRALNHMSKAFQEVMNDLLSNLKTVYNAEAAVIIPGSGTYGMEAVARQLTIDEDCLIIRNGWFSYRWTQILEKGKFAKSSTVLTAERTEDTEAPKPFAPVDIETAVAKIKEDKSAIVYAPHVETSSGIILSEEYIKALSEAVHSVGGLLVIDCIASGCVWLDMKELGIDVLISAPQKGWSSTPCAGLVMLSAAAIKKVESTESNCFSLDLKQWLTIMRAYENGGHAYHATMPTDSLRQFRDAILEAKEIGFDILRDAQWELGNRVRKVLTDKGIESVAAEGFEAPGVVVSYTERDDMHKGSAFAEAGLQIAAGVPLKVGEPDNFKTFRLGLFGLDKLTDIDGTVERFEKALDEVLAK” the protein production was “not failed”.
For “MTALTPLQRLWLTETVRLREEHAGPLEDQEANRLARNQGGDLATRIQNRALWLAQRDGLHSALLHWHQGARMALLALSVLAVISGAGLAFSALGSTQQPVNVFWALGSLLGINLILLLSWLAGLLFAGEHGASLGRLWLWLSEKFSRDAKAAQLPPALLLLLQRRKLNRWALGSLINGLWCLALFSAVVMLLLLLTTHRYSFVWESTLLGSDAFVAITNTLSALPRGLGFGAPSVASIQASTRDVYNTELIRQSWAIWLVVLVTIYGVLPRLLLMLFCRWRWKHGQARLQLDLNLPGYAQLRERLMPSSERLGVNDAAPEQLHRVEGGVSAQDSSGALLVAIELDNQRPWPPQLPESIKDAGILDSRESRSRLLEQMSRFPPARLVIACDPRRSPDRGSLGLIAELARNASATRVWLLQAPPGQALDADRLGDWHSALHKLQLPFADCAPLDWLENGHD”, the protein production was “failed”.
For “MTARDDETIAFYSGHATAYTSRGQAPDRPHLETFLARLRAGAKILELGCGGGQDSEYMLSAGFDVHPTDGTPDIAKAAQARLGIPVRTLLFENIEDAALYDAVWANACLLHVPRLALPGIIGRIHTALKPGGVFYASFKAGEVEGRDTFGRYYNYPSKAWLEETYGQFAWTEVEIEARQGSGYDKLPTDWLHVTATKALEHHHHHH”, the protein production was “not failed”.
For “MTARELLKIVVVGHVDHGKSTIIGRLLYDTKSVPEAAIERVKRISKEKGRPFEYAYLLDALEEEQKQGITIDTTQIKFSTPKRDYLIIDAPGHKEFLKNMVSGAANAEAALLVIDAAEGVQEQSKRHAYILSLLGIQKVYVIVNKMDMIEFSEKKFKEIKYEISTFLSKLNVYPQKYIPVSGFLGENIARKSDKMPWYKGETLLQALDLFEKDKELEDRPLRFPIQDVYKFDHRRVIAGRLESGRLKVGDEIKILPEGKVSKVKSIEFWPENNKKDEVVAGMSIGITIEDEFFNKRGEVIVHKNDNTLYVSDTFRANLFWLGKRNLVKNKTYKLKLVTQETECEIVSIDKVIDATTLETVENALEVRTNDVAEVTIKTREKICFDEFKVNPTTGRFVLVDEYDVSGGGIISGLANLKEEATKFVKDDKEMIVHCFDEYYYSLSEGLIRKHSKYKRTFKVGDAVPIEGETYSYPESFDVIDINGKLVAKVRKGQLSDLVDIDQYIYSELPIITADGFYLKVNSIDEFKDFKNELVQLQKNDNFHLAMFANKWYDISANRSFKFTV”, the protein production was “failed”.
With “MTARPDSSGASSRHDRLQRHPTPNARNSLWRWTDAKHPLRVALNYVVIVLARISPSLHAKNWLLARIGVTVGDGVAWGLESTPDVFWPELVTVGDDAIIGYDATLLCHEFLHDEYRTGAVVVEDRAMIGAGAVVLPGVTIGADAQVAANSLVTADVPPGETVAGVPAAPTGD” the protein production was “failed”.
In the case of “MTARSNSSSSGTSSNKRPRTSGSSPSSKSRRGSGSGPAGRSRKTTSAVSYPTNSARRASETSEERTGSAFRAVGSGLGTLVSATAHGVGSVTRAVARTLHREHDDEEFDAVDDAFSSEETVVTNRKRKPSRMTKTKKNLFDDDIEDQHDDFDEEAGLGRFTLALSDESVDSIGLILIALAFIVGASVWFDIAGPIGAAIAAGVHFVIGAGALILPLALVAIAIALMLGKLPEPDHQPRLVLGTSVIAISMLGLIHLFAGDPADWQGRTHAGGIVGAYSGGMIARGFSVYLAIPLLVLVIIYGALRINNVTVKELFEAIQDTVQGLRDDSEDEDDPLYADADAEIEARSRGEKLHRPQPRREKPRPAPERRRMSAPLVDDVDEDVVSRPLFDDPSTAQSQKSSVETQRAARDVSETDEFPAVDEPTVVVPRKPSAPRMSLPQTPVTDVEAAADVVAAGRKAVQDAVKARESHNVGAALAPSTPAQPYEAPESHYAVPSTQLLIPGKEAKTHSEANDRMIEAISDVFAEFKVDAHVTGFSRGPTVTRYEVELGPGVKVSKITNLQSNLAYAVATDNVRLLTPIPGKSAVGIEVPNTDREMVRLGDVLNSESVHSDHDPMLIGLGKDIEGDFVAHSVQKMPHLLVAGSTGSGKSAFVNSLLVSLLTRATPEDVRLILVDPKMVELTPYEGIPHLITPIITQPKKAAAALQWLVEEMEQRYMDMKSTRVRHIKDFNRKVKSGEIQAPLGSQREYHPYPYIVCVVDELADLMMTAPKEIEDSIVRITQKARAAGIHLVLATQRPSVDVVTGLIKTNVPSRLAFATSSLTDSRVILDQAGAEKLIGMGDGLFIPQGGRPQRIQGAFVTDEEIQAVVDAAKAQGEPNYTEGVTEDKAAEAKKDIDADIGNDLEDLLQAVELVVTAQLGSTSMLQRKLRIGFAKAGRLMDLMETRGIVGPSEGSKAREVLVKPEELETTLWMIKGAKPEDAPKEDDWQSADSGVSDASDPSHGERAAYNPSSNAF”, the protein production was “failed”.
With “MTASNPTILALDFDGVICDGLIEYFEVAWRTYCQIWSPAENTPPDDLALRFYRLRPVIETGWEMPVLIKALVDGNSDDQILQEWTSITPKILLDDKLQAKEIATKLDGLRDEWIANDLDGWLSLHRFYQGVIEKLKIAVASEVKLYIVTTKEGRFVEQLLHQEGVDLPRDAIFGKEVKRPKYEIIRELIQAADHEPVSLWFVEDRIKTLQLVQQQSDLEDVKLFLADWGYNTQSERKAAQSDPRIQLLSLSQFAKDFPGWV” the protein production was “failed”.
With “MTASPLLTAFLPLALGIIMLGLGLSLTLADFARVVKYPKPVVVGLVCQILLLPLVCFLIANGFGLESALAVGLMLLAASPGGTTANLFSHLAHGDVALNITLTAVNSLIAILTMPLLVNLSLSWFMASDQAIPLQFAKVMQVFAIVLLPVALGMLIRHFAPAFAARMEKPMKLVAALFLAFTIVLALAKDWQTVVEYAPVVGLAALLFNLLSLTVGYWVPRLLNISKRQAIAIGMEIGIHNGTLAIALALSPSLLNNATMAVPAALYSLIMFFTAAGFGWWVSRGHVAAEPKGETVN” the protein production was “failed”.
In the case of “MTATPGTTVPAPIMQTTDNSLTWLLQNLLDRTPGTRHALVLSRDGLRLCWTEHLTLDRADQLAAICSGIQALAQGASVEFGNGTGGVRHSMTEFHGGLLFIVEAGEGAHLAVVAVEDADPGVVGHQMTELVEQIGEHLRAEPRHAVPGGSSS”, the protein production was “failed”.
In the case of “MTAYDLKLKCVCDYIQQHLDETLSLQQLSEVAGLSRFHFHRIFYAHLGMNIMKYTQMLRLKRASFQLVFKPEVKVIEIALDAGFDSPEAFARAFKRSFDQTPSAFRVEPNWQNWHRKFVYFTPESELKMNVTIIERPVEKIAYISHQGSPEKVFETAAKFIEWRKRTGLSPVKTSATYGIPFSDPEQTPEKEFRFDIAGSITKSIDQNNEGIEMSEIPAGRYAMVRHWGSHDYIRDSVYFLFRNWLPAQQEEAGDYPVFFHYHNFVHEVKEADLVTDIYLLLK”, the protein production was “failed”.
With “MTCAYRREIHHAHVAIRDWLAGDSRADALDALMARFAEDFSMVTPHGVVLDKTALGELFRSKGGTRPGLRIEIDGESLLASGVDGATLAYREIQSDAAGRSERLSTVVLHRDDEGRLYWRHLQETFCG” the protein production was “not failed”.
With “MTCDQIPGRMRVKAERTPFRCPTPVKRKKAMSSAMPQPETTPILACTVSRDVQNFDLLIEDMEAAMGESWGDLGFAEALAFFGQPESESLEFIALAIDTEDEDNLVLMGEIITQAKSRGIKVILIAEDVTPASLHQLLRKGADEFVPYPLPERELQSAIDRMSKPEPEQAQTHHNTAHLNKGAAREGALIVVHGLAGGTGSTTMAVNLAWELANIGGEDAPSVCLMDLDLQHGSVSTYLDLPRREAVFEMLSETQSMDEEVFGQALLSFEDKLQVLTAPSDMVPLDILSPEDIQRVIEMARAHFDYVIVDMPKTLVQWSETILQAAHVYFAMIELDMRSAQNALRMKRALQSEDLPFNKLRFALNKAPKFTDLSGKSRVKRMGESLGISIDLQLPDGGKQVTQGADHGLPLATSAPKNPLRREIAKLAQSLHELGRSDAKAA” the protein production was “failed”.
